Experimental findings from FireProtDB (doi:10.1016/j.jmb.2010.08.048) are described below.

The chains are these.
B1: Glucocorticoid receptor, P04150 (parent)
chain: MDSKESLTPGREENPSSVLAQERGDVMDFYKTLRGGATVKVSASSPSLAVASQSDSKQRRLLVDFPKGSVSNAQQPDLSKAVSLSMGLYMGETETKVMGNDLGFPQQGQISLSSGETDLKLLEESIANLNRSTSVPENPKSSASTAVSAAPTEKEFPKTHSDVSSEQQHLKGQTGTNGGNVKLYTTDQSTFDILQDLEFSSGSPGKETNESPWRSDLLIDENCLLSPLAGEDDSFLLEGNSNEDCKPLILPDTKPKIKDNGDLVLSSPSNVTLPQVKTEKEDFIELCTPGVIKQEKLGTVYCQASFPGANIIGNKMSAISVHGVSTSGGQMYHYDMNTASLSQQQDQKPIFNVIPPIPVGSENWNRCQGSGDDNLTSLGTLNFPGRTVFSNGYSSPSMRPDVSSPPSSSSTATTGPPPKLCLVCSDEASGCHYGVLTCGSCKVFFKRAVEGQHNYLCAGRNDCIIDKIRRKNCPACRYRKCLQAGMNLEARKTKKKIKGIQQATTGVSQETSENPGNKTIVPATLPQLTPTLVSLLEVIEPEVLYAGYDSSVPDSTWRIMTTLNMLGGRQVIAAVKWAKAIPGFRNLHLDDQMTLLQYSWMFLMAFALGWRSYRQSSANLLCFAPDLIINEQRMTLPCMYDQCKHMLYVSSELHRLQVSYEEYLCMKTLLLLSSVPKDGLKSQELFDEIRMTYIKELGKAIVKREGNSSQNWQRFYQLTKLLDSMHEVVENLLNYCFQTFLDKTMSIEFPEMLAEIITNQIPKYSNGNIKKLLFHQK

As usually defined, the Tm is the temperature at which the thermal transition is half complete.

Variants of B1 are the subject of the data set. The conditions noted are these: Homo sapiens; pH 7.8; Thermal; CD; Tris-HCl 25mM; structure 1M2Z; whole UniProt chain shown.
For the variant F602S, the melting temperature (Tm) was found to be 50.3 °C.

For M752T, the Tm came out at 48.6 °C.

For A605V M752T, the Tm was 51.5 °C.

With A605V M752T V702A E705G, the Tm stood at 54.4 °C.

As for A605V M752T E705G, the midpoint of thermal melting (Tm) stood at 52.9 °C.

For A605V M752T V702A, the melting temperature (Tm) was determined as 53.6 °C.

For the variant A605V, the midpoint of thermal melting (Tm) was 49.3 °C.

Consider E705G, for which the Tm came out at 46.6 °C.

As to F602S A605V, the midpoint of thermal melting (Tm) was 54 °C.

For F602S A605V M752T M560K, the Tm stood at 49.9 °C.

Consider V702A, for which the Tm is 47.2 °C.

In the case of F602S A605V M752T, the Tm is 56 °C.

For the variant F602S A605V M752T V702A E705G, the Tm is 58.6 °C.
